Measured values as given in article doi:10.1101/2025.01.26.634877 (bioRxiv, 2025).

Biological target: the molecule itself
Experiment: light scattering

B1: Recombinant mouse neurofilament light chain protein, wild type (NfL-WT) (natural protein, UniProt P08551 1-543, looked up)
chain: MSSFGYDPYFSTSYKRRYVETPRVHISSVRSGYSTARSAYSSYSAPVSSSLSVRRSYSSSSGSLMPSLENLDLSQVAAISNDLKSIRTQEKAQLQDLNDRFASFIERVHELEQQNKVLEAELLVLRQKHSEPSRFRALYEQEIRDLRLAAEDATNEKQALQGEREGLEETLRNLQARYEEEVLSREDAEGRLMEARKGADEAALARAELEKRIDSLMDEIAFLKKVHEEEIAELQAQIQYAQISVEMDVSSKPDLSAALKDIRAQYEKLAAKNMQNAEEWFKSRFTVLTESAAKNTDAVRAAKDEVSESRRLLKAKTLEIEACRGMNEALEKQLQELEDKQNADISAMQDTINKLENELRSTKSEMARYLKEYQDLLNVKMALDIEIAAYRKLLEGEETRLSFTSVGSITSGYSQSSQVFGRSAYSGLQSSSYLMSARSFPAYYTSHVQEEQTEVEETIEATKAEEAKDEPPSEGEAEEEEKEKEEGEEEEGAEEEEAAKDESEDTKEEEEGGEGEEEDTKESEEEEKKEESAGEEQVAKKKD
modifications: native post-translational phosphorylation (varying levels, sites not given); N-terminal carbamoylation observed from the urea conditions
B1: binds.
